The results in this text go back to publication PMC3859839.

Where two headings read alike, the source gives them in different places.

Targets include PsaR H76A (Streptococcus pneumoniae D39, UniProt A0A0H2ZQ59 1-216, H76A); PsaR H76F (Streptococcus pneumoniae D39, UniProt A0A0H2ZQ59 1-216, H76F); PsaR D160A (Streptococcus pneumoniae D39, UniProt A0A0H2ZQ59 1-216, D160A); PsaR H125A (Streptococcus pneumoniae D39, UniProt A0A0H2ZQ59 1-216, H125A); PsaR E99A (Streptococcus pneumoniae D39, UniProt A0A0H2ZQ59 1-216, E99A); PsaR D7A (Streptococcus pneumoniae D39, UniProt A0A0H2ZQ59 1-216, D7A).

Common to all, as to assay: fluorescence anisotropy
In general terms: Fluorescence polarisation rises when a labelled molecule tumbles more slowly, as on binding a larger partner.

The target of data set [1] is T1, PsaR wild-type (Streptococcus pneumoniae D39, UniProt A0A0H2ZQ59 1-216).
Data set [2] concerns the target T1, PsaR wild-type. This is another data set of the same source.
The target in data set [3] is T1, PsaR wild-type. The source holds these as a separate data set.

B1: PsaO (psaBCA operator) (dsDNA)
DNA 1: TTCAAAAATTAACTTGACTTAATTTTTTTT
DNA 2: AAAAAAAATTAAGTCAAGTTAATTTTTGAA
Regarding B1, the Ka with PsaR H76A is 9.6 ± 0.1 log10 M-1; with PsaR wild-type [1], 10.6 ± 0.1 log10 M-1; with PsaR H76F, 8.54 ± 0.06 log10 M-1; with PsaR D160A it was 9.8 ± 0.1 log10 M-1; with PsaR H125A, 10.4 ± 0.1 log10 M-1; in the data set with PsaR E99A it was 9.27 ± 0.05 log10 M-1. In addition, the Ka was 7.22 ± 0.03 log10 M-1 with PsaR D7A, 10.1 ± 0.1 log10 M-1 in the data set with PsaR wild-type [2] and 8.02 ± 0.03 log10 M-1 with PsaR wild-type [3].
